Source: patent publication US6500428B1, “Antibodies to a lymphocyte surface receptor that binds CAML and methods of use thereof” (St. Jude Children's Research Hospital, priority 1997, dated 2002)

T1: TACI-1 (Homo sapiens, UniProt O14836)
T1 sequence (O14836 1-293): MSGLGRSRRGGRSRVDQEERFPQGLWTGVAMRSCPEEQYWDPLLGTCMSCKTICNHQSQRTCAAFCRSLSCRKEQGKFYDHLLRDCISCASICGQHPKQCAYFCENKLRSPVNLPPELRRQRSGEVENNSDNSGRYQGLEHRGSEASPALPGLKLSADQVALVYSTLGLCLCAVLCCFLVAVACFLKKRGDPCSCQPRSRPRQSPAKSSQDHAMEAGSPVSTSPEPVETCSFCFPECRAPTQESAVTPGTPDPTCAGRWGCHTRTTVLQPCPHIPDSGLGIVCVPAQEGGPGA


Tests used:
TACI-1 [1] = target: T1, TACI-1; assay: NF-AT-driven secreted alkaline phosphatase reporter in TAg Jurkat T cells transfected with TACI-1; format: cell-based; parameters: expressed in transfected cells; host or cells: TAg Jurkat T cells, plasmid pBJ5-TACI-1; settings: antibody-cross linked TACI-1 in TAg Jurkat T cells; CsA 100 ng/ml, FK506 500 pg/ml; EGTA increasing concentrations; CAML(1-146) co-transfected
Description: FIG. 4. TACI-1 is a signaling protein that functions in the activation of NF-AT-specific transcription. FIG. 4A depicts the activation of an NF-AT-driven secreted alkaline phosphatase reporter. TAg Jurkat T cells, co-transfected with the SXNFAT reporter [Bram et al., Mol. Cell. Biol., 13:4760-4769 (1993)] and the expression plasmid pBJ5 [Takebe, Y, et al., Mol. Cell. Biol., 8:466-472 (1988)] containing either TACI-1-encoding cDNA (solid triangles) or nothing (circles), were treated with 50 ng/ml PMA and the indicated amounts of ionomycin in the presence (closed symbols) and absence (open symbols) of magnetic beads coated with immunoaffinity-purified anti-TACI-1 polyclonal antibodies. […] NF-AT activation was determined in TAg Jurkat T cells co-transfected with SXNFAT and pBJ5 (−TACI-1, left) or pBJ5-TACI-1 (+TACI-1, right), and treated with the indicated combinations of PMA (50 ng/ml), ionomycin (2 μM), CsA (100 ng/ml) and FK506 (500 pg/ml) in the presence of anti-TACI-1 antibody-coated beads (‘NS’, not stimulated). […] NF-AT activation was measured in the presence of EGTA in Jurkat T cells over expressing TACI-1. […] AP-1 activation was measured in TAg Jurkat T cells, co-transfected with a mouse metallothionein AP-1-SEAP reporter [Bram et al., 1991, supra] and pBJ5 containing no insert (−TACI-1, left) or TACI-1 cDNA (+TACI-1, right). […]

[2] = test system: PMA plus ionomycin-induced NF-AT activity; assay: PMA plus ionomycin-induced NF-AT activity in Jurkat T cells (specificity control); format: cell-based, human; settings: co-transfection in Jurkat T cells
Description: To examine whether TACI-1 signaling depends on the association of TACI-1 with CAML. the interacting domain of CAML (residues 1-146) is tested to determine if it can inhibit TACI-1-induced NF-AT activation in a dominant negative fashion. […] CAML(1-146) lacks the hydrophobic transmembrane domains that are required for Ca^2+ influx activity [Holloway & Bram, Biol. Chem., 271:8549-8552 (1996)].

TACI-1 [3] = target: T1, TACI-1; assay: Co-immunoprecipitation with FLAG-tagged TACI-1 from 293T cell lysates; format: binding; settings: anti-FLAG agarose beads
Description: FIGS. 5A-5D. TACI-1 interaction with CAML is critical for Ca^2+ signaling. […] Full-length cDNAs and indicated deletion mutants of TACI-1 and CAML were cloned into the yeast expression plasmids pACT and/or pAS1, and the indicated combinations were tested for interaction with the yeast 2-hybrid system (‘+’, positive interaction; ‘−’, no interaction; ‘ND’, not done). FIG. 5D depicts the co-immunoprecipitation of CAML with TACI-1. 293T cells were transfected with the indicated combinations of the expression plasmid pBJ5 containing cDNAs for CAML. TACI-1 with an N-terminal FLAG tag, the N-terminal 146 amino acids of CAML (CLX91), or no insert. After incubation for 48 hours, the cells were lysed (1% dodecyl maltoside, 20 […] HEPES pH 7.4. 150 mM NaCl, 10% glycerol, 2 mM MgSO4, 1 mM CaCl2, 1 mM PMSF) and the lysate was clarified by centrifugation. FLAG-tagged TACI-1 and associated proteins were immunoprecipitated with anti-FLAG monoclonal antibody-conjugated agarose beads and subjected to Western transfer using standard protocols. […] NF-AT activation was determined in TAg Jurkat cells transfected with pBJ5 alone, pBJ5-TACI-1 plus the control plasmid, or pBJ5-TACI-1 with an equivalent amount of CLX91, following treatment with TACI-1-specific antibodies (top). TACI-1 expression in these transfections was determined by Western blot using anti-TACI-1 polyclonal antibodies (bottom). […]

Molecule | effect on TACI-1-mediated NF-AT activation (TACI-1 [1]) | effect on PMA plus ionomycin-induced NF-AT activity [2] | co-immunoprecipitation with TACI-1 (TACI-1 [3])
O=C(O)CN(CCOCCOCCN(CC(=O)O)CC(=O)O)CC(=O)O [EGTA, reference compound] | inhibition |  | 
CAML(1-146): N-terminal 146 amino acids of CAML, expressed from plasmid; dominant negative inhibitor of TACI-1 signaling (protein, UniProt P49069 1-146, looked up, fragment) MESMAVATDGGERPGVPAGSGLSASQRRAELRRRKLLMNSEQRINRIMGFHRPGSGAEEESQTKSKQQDSDKLNSLSVPSVSKRVVLGDSVSTGTTDQQGGVAEVKGTQLGDKLDSFIKPPECSSDVNLELRQRNRGDLTADSVQR | completely eliminates | no inhibitory effect | co-immunoprecipitated
